{
  "source": "patent US8367360B2",
  "about": "“Method of screening for inhibitors of tau protein phosphororylation by tyrosine kinase c-Abl” (Proteome Sciences plc, priority 2004, dated 2013)",
  "key": {"[1]": {"biological_target": "V5 tagged human tau mutant Y310F (human) (UniProt P10636)", "assay": "cell-based or functional assay"}, "[2]": {"biological_target": "V5 tagged human tau mutant Y18F (human) (UniProt P10636)", "assay": "cell-based or functional assay"}, "[3]": {"biological_target": "V5 tagged human tau mutant Y197F (human) (UniProt P10636)", "assay": "cell-based or functional assay"}, "[4]": {"biological_target": "V5 tagged human tau mutant Y394F (human) (UniProt P10636)", "assay": "cell-based or functional assay"}, "[5]": {"system": "COS-7 cells transfected with V5 tagged human tau", "assay": "Phosphorylation of tyrosine residues in tau in cultured cells treated with pervanadate", "assay_type": "cell-based", "details": "20 minutes, Y394-only mutant and wild-type tau", "from_the_text": "In a first set of experiments, COS-7 cells were transiently transfected with V5 tagged human tau longest isoform or with V5 tagged mutants of tau where one tyrosine has been replaced by one phenylalanine (named Y18F, Y29F, Y197F, Y310F and Y394F) constructs. In a second set of experiments, COS-7 cells were transiently transfected with the V5 tagged tau (441) construct or with V5 tagged mutants of tau where only one tyrosine is remaining, the four other tyrosines being replaced by phenyalanine (named Y18-only, Y29-only, Y197-only, Y310-only and Y394-only according to the remaining tyrosine). In order to increase tau tyrosine phosphorylation, cells were treated with the tyrosine phosphatase inhibitor pervanadate for 20 minutes. Cells were harvested in NETF buffer (100 mM NaCl, 2 mM EGTA, 50 mM Tris-Cl pH 7,4 and 50 mM NaF) containing 1% NP-40, 2 mM orthovanadate and protease inhibitors. Samples were precleared with 40 μl of protein G-Sepharose beads, and immunoprecipitations were carried out with monoclonal anti-V5 antibodies preadsorbed on protein G-Sepharose beads. Cells were harvested in NETF lysis buffer containing 1% NP-40 and tau was immunoprecipitated using an anti-V5 antibody. […] Quantification was achieved by scanning the autoradiograms with GS710 Calibrated Imaging Densitometer (Bio-Rad) and measurement of relative optical density with Quantity One 4.0.3 software (Bio-Rad)."}, "[6]": {"system": "primary rat neuronal cultures", "assay": "Amyloid beta treatment of neurons and isolation of lipid rafts", "assay_type": "cell-based", "experimental": "Rat and human primary cortical neuronal cultures were treated with fibrillar Aβ25-35 or Aβ1-42 for 1-30 min. Lipid rafts were prepared from control untreated and Aβ-treated neuronal cultures by scraping the cells from one 80 cm^2 flask into 2 ml 1% Triton X-100 in 25 mM Mes, pH 6.5 containing protease inhibitors. Cells were disrupted by Dounce homgenization. The homogenate was mixed with 2 ml of 90% sucrose (w/v) in 25 mM Mes, 150 mM NaCl pH 6.5 and placed in a 12 ml centrifuge tube. A 5-35% step sucrose gradient was formed by overlaying the homogenate mix with 4 ml of a 35% (w/v) sucrose solution followed by 4 ml of a 5% (w/v) sucrose solution. This was then centrifuged at 39,000 rpm for 18 hr in a Beckman SW41 rotor. 1 ml fractions were collected from the top of each gradient. The lipid raft fraction partitioned at the interface between the 5% (w/v) sucrose layer and the 35% sucrose (w/v) layer, fractions 4 and 5. Lipid raft fractions were concentrated by mixing the raft fractions (4 and 5) with 10 ml dd H2O and centrifuging at 39,000 rpm for 2 h in a Beckman SW41 rotor. The supernatant was aspirated and the remaining pellet was resuspended in 100 μl of 2× sample buffer. Western blots of lipid raft proteins were probed for antibodies to flotillin and protein loading corrected by scanning densitometry. Tau was detected in lipid rafts by probing western blots of lipid raft proteins using a polyclonal anti-tau antibody (DAKO)."}, "[7]": {"details": "pre-treatment of neuronal cultures with inhibitor before exposure to Aβ"}},
  "note": "Entries after “also recorded” stand apart in the source; their conditions may differ.",
  "data": [
    {"compound": "Fyn tyrosine kinase (expressed from Fyn cDNA in CHO cells) (from UniProt P06241 1-537) (enzyme)", "values": [
      {"measurement": "tyrosine phosphorylation of immunoprecipitated tau (4G10 Western blot), CHO cells co-transfected with Fyn (% of the wild-type control)", "setting": "[1]", "result": 50},
      {"measurement": "tyrosine phosphorylation of immunoprecipitated tau (4G10 Western blot), CHO cells co-transfected with Fyn (% of the wild-type control)", "setting": "[2]", "result": 50}
    ]},
    {"compound": "AblΔXB (a constitutively active form of Abl, with deletion of most of the SH3 domain) (enzyme)", "values": [
      {"measurement": "tyrosine phosphorylation of immunoprecipitated tau (4G10 Western blot), CHO cells co-transfected with AblΔXB (% of the wild-type control)", "setting": "[3]", "result": 70},
      {"measurement": "tyrosine phosphorylation of immunoprecipitated tau (4G10 Western blot), CHO cells co-transfected with AblΔXB (% of the wild-type control)", "setting": "[1]", "result": 70},
      {"measurement": "tyrosine phosphorylation of immunoprecipitated tau (4G10 Western blot), CHO cells co-transfected with AblΔXB (% of the wild-type control)", "setting": "[4]", "result": 25}
    ]},
    {"compound": "pervanadate", "values": [
      {"measurement": "tyrosine phosphorylation of tau (4G10 western on immunoprecipitated tau)", "setting": "[5]", "result": "induces an increase in tyrosine phosphorylation"}
    ]},
    {"compound": "Aβ1-42: fibrillar amyloid β-peptide 1-42 used to treat neurons", "values": [
      {"measurement": "tyrosine phosphorylation of neuronal protein components of lipid rafts", "setting": "[6]; peptide treatment of primary rat neuronal cultures", "result": "rapid increase"}
    ]},
    {"compound": "CC(C)(C)n1nc(-c2ccc(Cl)cc2)c2c(N)ncnc21", "note": "[PP2]", "values": [
      {"measurement": "Aβ-induced increase in tyrosine phosphorylation of lipid raft proteins", "setting": "[6]; inhibitor given with Aβ treatment, primary rat neuronal cultures, western blot of lipid rafts", "result": "abrogated"},
      {"measurement": "Aβ-induced recruitment of Fyn to lipid rafts", "setting": "[6]; [7]", "result": "blocking of the recruitment"},
      {"measurement": "Aβ-induced recruitment/partitioning of tau into lipid rafts", "setting": "[6]; [7]", "result": "abrogated; also recorded: blocking of the recruitment"}
    ]}
  ]
}
